# Measurements published in article PMC5877976.
# Columns and labels:
# Assay in all cases: SPR
# [1] = target: chronic gp120 with its wild-type chronic SP (HIV-1 (subtype B))
# [2] = target: chronic gp120 with the early-replicating SP (HIV-1 (subtype B))
# [3] = target: early-replicating gp120 with its wild-type SP (HIV-1 (subtype B))
# [4] = target: early-replicating gp120 with the chronic SP (HIV-1 (subtype B))
substance,measurement,setting,value
tetrameric recombinant soluble DC-SIGN (from UniProt Q9NNX6 1-404) (receptor),peak response units (RU),[1],184 RU
same,peak response units (RU),[2],308 RU
same,peak response units (RU),[3],208 RU
same,peak response units (RU),[4],131 RU
